Test results: patent US20220275049A1 (AGENUS, published 2022)
Square brackets hold non-standard residues; d marks the D form. Ends that are not written are not given here. pY = N[C@@H](Cc1ccc(OP(=O)(O)O)cc1)C(=O)O; pT = C[C@@H](OP(=O)(O)O)[C@H](N)C(=O)O; pS = N[C@@H](COP(=O)(O)O)C(=O)O

B1: RLLsAAENFL (peptide)
peptide: RLL[pS]AAENFL-OH
modifications: N-terminus assumed
SMILES: CC(C)C[C@H](NC(=O)[C@H](Cc1ccccc1)NC(=O)[C@H](CC(N)=O)NC(=O)[C@H](CCC(=O)O)NC(=O)[C@H](C)NC(=O)[C@H](C)NC(=O)[C@H](COP(=O)(O)O)NC(=O)[C@H](CC(C)C)NC(=O)[C@H](CC(C)C)NC(=O)[C@@H](N)CCCNC(=N)N)C(=O)O

What was measured:
Experiment in all cases: AlphaScreen, peptide titrated on biotinylated HLA + b2m
[1] = biological target: T1, biotinylated HLA-A*02:01 with β2m (human, biotinylated)
T1 construct: HLA heavy chain mixed with excess β2m; the peptide is titrated onto it
Procedure: (§1) An AlphaScreen® assay was used to evaluate the binding of peptides to HLA molecules. Donor beads conjugated with streptavidin, and acceptor beads conjugated with the anti-human HLA class I antibody W6/32, were used to assess peptide binding. Biotinylated HLAs (A*02:01, B*07:02, C*07:01, or C*07:02) were mixed with a fixed excess of β2m and the mixtures added to each well of a 384-well microplate. Serial dilutions of the synthesized phosphopeptides were added to the wells, and the resultant HLA/β2/peptide mixtures were incubated overnight at 18° C. W6/32 conjugated acceptor beads were subsequently added to the wells, and the mixture was incubated for 1 hour at 21° C. Streptavidin conjugated donor beads were then added to the wells, and the mixture was incubated for a further 1 hour at 21° C.
(§2) The microplate was read using the PerkinElmer® plate reader, and data were plotted using the Michaelis-Menten equation to determine the Kd for each phosphopeptide.

[2] = biological target: T2, biotinylated HLA-B*07:02 with β2m (human, biotinylated)
T2 construct: also called B*07:02 (as the text prints it)
Procedure: as §1, §2

[3] = biological target: biotinylated HLA-C*07:01 with β2m (human, biotinylated)
Procedure: as §1, §2

[4] = biological target: biotinylated HLA-C*07:02 with β2m (human, biotinylated)
Procedure: as §1, §2

Binder | Kd [2] [nM] | Kd [1] [nM] | binding result [2] | further results
AVRPTRL[pS]L [AVRPTRLsL] | 117 | – | – | binding result [1]: no binding
SPA[pS]PKISL [SPAsPKISL] | 275 | – | – | –
RPR[pS]ISVEEF [RPRsISVEEF] | 86.1 | – | – | –
LPA[pS]PRARL [LPAsPRARL] | 83.5 | – | – | –
SLF[pS]SEESNL [SLFsSEESNL] | – | 466 | no binding | binding result [3]: no binding; binding result [4]: no binding
RPRIP[pS]PIGF [RPRIPsPIGF] | 84.4 | – | – | binding result [1]: no binding
RIYQ[pY]IQSR [RIYQyIQSR] | – | – | – | binding result [1]: no binding
[pY]LQSRYYRA [yLQSRYYRA] | – | 255 | – | binding result [3]: no binding
SMS[pS]LSREV [SMSsLSREV] | – | 927 | no binding | binding result [3]: no binding; binding result [4]: no binding
RLS[pS]PLHFV [RLSsPLHFV] | – | 90.6 | – | –
RRS[pS]FLQVF [RRSsFLQVF] | – | – | no binding | Kd [4]: 19 nM
RPY[pS]PPFFSL [RPYsPPFFSL] | 157 | – | – | –
TVF[pS]PTLPAA [TVFsPTLPAA] | – | 46.9 | no binding | binding result [3]: no binding; binding result [4]: no binding
RPR[pS]PTGPSNSFL [RPRsPTGPSNSFL] | 360 | – | – | binding result [1]: no binding
SLF[pS]SEESNLGA [SLFsSEESNLGA] | – | 149 | no binding | binding result [3]: no binding; binding result [4]: no binding
RRG[pS]FEVTL [RRGsFEVTL] | – | – | no binding | Kd [3]: 16.6 nM; Kd [4]: 15.9 nM
RPK[pT]PPVVI [RPKtPPVVI] | – | – | – | binding result [1]: no binding
RIYQ[pY]IQSRF [RIYQyIQSRF] | – | – | – | Kd [3]: 477 nM; Kd [4]: 377 nM
SISS[pT]PPAV [SISStPPAV] | – | 169 | no binding | binding result [3]: no binding; binding result [4]: no binding
SVKPRRT[pS]L [SVKPRRTsL] | – | – | – | binding result [1]: no binding; binding result [3]: no binding; binding result [4]: no binding
SLF[pS]GDEENA [SLFsGDEENA] | – | 278 | no binding | binding result [3]: no binding; binding result [4]: no binding
RLL[pS]FQRYL [RLLsFQRYL] | – | 49.7 | no binding | –

Binder | Kd [2] [nM] | Kd [1] [nM] | binding result [2] | further results
RRL[pS]FLVSY [RRLsFLVSY] | – | – | – | Kd [3]: 1570 nM; Kd [4]: 113 nM
LPRPA[pS]PAL [LPRPAsPAL] | 223 | – | – | binding result [1]: no binding
SLHDIQL[pS]L [SLHDIQLsL] | 642 | 31.9 | – | Kd [3]: 962 nM; Kd [4]: 413 nM
SLF[pS]PQNTL [SLFsPQNTL] | – | 116 | – | –
RRI[pS]DPQVF [RRIsDPQVF] | – | – | no binding | Kd [3]: 11.4 nM; Kd [4]: 19.9 nM
SIM[pS]PEIQL [SIMsPEIQL] | – | 84 | no binding | –
KIK[pS]FEVVF [KIKsFEVVF] | – | – | no binding | –
KRF[pS]GTVRL [KRFsGTVRL] | – | – | no binding | –
SLQ[pS]LETSV [SLQsLETSV] | – | 121 | no binding | binding result [3]: no binding; binding result [4]: no binding
RRP[pS]LLSEF [RRPsLLSEF] | – | – | – | Kd [3]: 804 nM; Kd [4]: 35.7 nM
B1 | – | 114 | – | –
FRR[pS]PTKSSLDY [FRRsPTKSSLDY] | – | – | – | Kd [4]: 98.6 nM
VLFS[pS]PPQM [VLFSsPPQM] | – | 227 | no binding | binding result [4]: no binding
RPAFF[pS]PSL [RPAFFsPSL] | 398 | – | – | binding result [1]: no binding
RRF[pS]GTAVY [RRFsGTAVY] | – | – | no binding | Kd [3]: 2180 nM; Kd [4]: 16.7 nM
RPRPV[pS]PSSLL [RPRPVsPSSLL] | 186 | – | – | –
SPFKRQL[pS]L [SPFKRQLsL] | 64.7 | – | – | –
RPDVAKRL[pS]L [RPDVAKRLsL] | 216 | – | – | –
RPF[pS]PREAL [RPFsPREAL] | 163 | – | – | –
SIS[pS]MEVNV [SISsMEVNV] | – | 306 | no binding | binding result [3]: no binding; binding result [4]: no binding
YRY[pS]PQSFL [YRYsPQSFL] | – | – | no binding | binding result [1]: no binding
